Reference: the supplement of paper PMC12855868

B1: library; numbered along this chain (parent)
chain: MAAAGGARLLRAASAVLGGPAGRWLHHAGSRAGSSGLLRNRGPGGSAEASRSLSVSARARSSSEDKITVHFINRDGETLTTKGKVGDSLLDVVVENNLDIDGFGACEGTLACSTCHLIFEDHIYEKLDAITDEENDMLDLAYGLTDRSRLGCQICLTKSMDNMTVRVPETVADARQSIDVGKTS

Variants of: B1
Assay: scaled log2 fold change in cell abundance, elesclomol vs control (0 = silent mean, 1 = nonsense mean) (scaled log2 ratio); higher = higher viability under elesclomol (loss of FDX1 cuproptosis function)
Conditions: glucose 10 mM
Experimental: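 Deep mutational scan of full-length human FDX1: a pooled saturation-mutagenesis ORF library (every residue 2-184 mutated to all 19 amino acids plus stop, and silent codons where available) was expressed by lentivirus in FDX1-knockout ABC1 (14 days) or HEK293T (11 days) cells grown with elesclomol (ES) or DMSO control. Variant abundance came from ORF sequencing. The log2 fold change (ES vs control, mean of duplicates) was centred on the silent-variant mean (0) and scaled to the nonsense-variant mean (1). Higher values mean greater viability under ES, i.e. loss of FDX1 function in cuproptosis.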

[1] = with ABC1 FDX1 KO, elesclomol 5 nM, 14 days
[2] = with HEK293T FDX1 KO, elesclomol 40 nM, 11 days
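Note: variant abundance is its share of total variant reads in each endpoint sample, from next-generation sequencing of the integrated ORF PCR-amplified out of genomic DNA.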

T68H
scaled log2 fold change [1]: 0.349 | scaled log2 fold change [2]: -0.699

T68S
scaled log2 fold change [1]: -0.0825 | scaled log2 fold change [2]: 0.833

T68I
scaled log2 fold change [1]: 0.0915 | scaled log2 fold change [2]: 0.0716

T68E
scaled log2 fold change [1]: -0.318 | scaled log2 fold change [2]: -0.497

T68F
scaled log2 fold change [1]: -0.000655 | scaled log2 fold change [2]: 0.914

T68V
scaled log2 fold change [1]: 0.247 | scaled log2 fold change [2]: 0.769

T68R
scaled log2 fold change [1]: -0.0852 | scaled log2 fold change [2]: -0.377

T68D
scaled log2 fold change [1]: 0.0867 | scaled log2 fold change [2]: 0.164

T68A
scaled log2 fold change [1]: -0.0418 | scaled log2 fold change [2]: -0.389

T68G
scaled log2 fold change [1]: -0.0825 | scaled log2 fold change [2]: 0.801

T68L
scaled log2 fold change [1]: 0.248 | scaled log2 fold change [2]: 0.885

T68M
scaled log2 fold change [1]: -0.209 | scaled log2 fold change [2]: 0.641

T68K
scaled log2 fold change [1]: -0.155 | scaled log2 fold change [2]: -0.329

T68C
scaled log2 fold change [1]: 0.309 | scaled log2 fold change [2]: -0.148

T68Q
scaled log2 fold change [1]: 0.0568 | scaled log2 fold change [2]: -0.103

T68N
scaled log2 fold change [1]: 0.00412 | scaled log2 fold change [2]: -0.202

T68Y
scaled log2 fold change [1]: 0.308 | scaled log2 fold change [2]: 0.0848

T68P
scaled log2 fold change [1]: 0.317 | scaled log2 fold change [2]: 0.911

T68W
scaled log2 fold change [1]: 0.0579 | scaled log2 fold change [2]: 0.896

V69G
scaled log2 fold change [1]: 1.19 | scaled log2 fold change [2]: 1.06

V69Y
scaled log2 fold change [1]: 1.05 | scaled log2 fold change [2]: 1.86

V69I
scaled log2 fold change [1]: -0.0537 | scaled log2 fold change [2]: -0.536

V69S
scaled log2 fold change [1]: 0.684 | scaled log2 fold change [2]: 0.329

V69C
scaled log2 fold change [1]: 0.189 | scaled log2 fold change [2]: 0.782

V69E
scaled log2 fold change [1]: 1.06 | scaled log2 fold change [2]: 1.55

V69A
scaled log2 fold change [1]: 0.0154 | scaled log2 fold change [2]: 0.807

V69N
scaled log2 fold change [1]: 1.01 | scaled log2 fold change [2]: 0.921

V69W
scaled log2 fold change [1]: 0.674 | scaled log2 fold change [2]: 0.931

V69L
scaled log2 fold change [1]: -0.537 | scaled log2 fold change [2]: -0.407

V69F
scaled log2 fold change [1]: -0.809 | scaled log2 fold change [2]: -0.24

V69T
scaled log2 fold change [1]: 0.119 | scaled log2 fold change [2]: 0.953

V69H
scaled log2 fold change [1]: 1.16 | scaled log2 fold change [2]: 1.1

V69Q
scaled log2 fold change [1]: 1.14 | scaled log2 fold change [2]: 0.294

V69K
scaled log2 fold change [1]: 1.22 | scaled log2 fold change [2]: 1.85

V69P
scaled log2 fold change [1]: 1.29 | scaled log2 fold change [2]: 0.484

V69R
scaled log2 fold change [1]: 1.13 | scaled log2 fold change [2]: 0.458

V69M
scaled log2 fold change [1]: 0.273 | scaled log2 fold change [2]: -0.0634

V69D
scaled log2 fold change [1]: 1.04 | scaled log2 fold change [2]: 1.26

I67G
scaled log2 fold change [1]: 0.747 | scaled log2 fold change [2]: 0.579

I67W
scaled log2 fold change [1]: 0.658 | scaled log2 fold change [2]: -0.0492

I67R
scaled log2 fold change [1]: 0.504 | scaled log2 fold change [2]: 0.363

I67M
scaled log2 fold change [1]: 0.35 | scaled log2 fold change [2]: 0.129

I67N
scaled log2 fold change [1]: 0.44 | scaled log2 fold change [2]: 0.681

I67H
scaled log2 fold change [1]: 0.608 | scaled log2 fold change [2]: 0.601

I67C
scaled log2 fold change [1]: 0.2 | scaled log2 fold change [2]: -0.121

I67T
scaled log2 fold change [1]: 0.0745 | scaled log2 fold change [2]: 0.365

I67K
scaled log2 fold change [1]: 0.691 | scaled log2 fold change [2]: 0.44

I67V
scaled log2 fold change [1]: -0.37 | scaled log2 fold change [2]: 0.832

I67P
scaled log2 fold change [1]: 0.222 | scaled log2 fold change [2]: -0.205

I67E
scaled log2 fold change [1]: 0.963 | scaled log2 fold change [2]: 0.881

I67Q
scaled log2 fold change [1]: 0.436 | scaled log2 fold change [2]: 0.135

I67Y
scaled log2 fold change [1]: 0.135 | scaled log2 fold change [2]: -0.731

I67L
scaled log2 fold change [1]: 0.113 | scaled log2 fold change [2]: 0.514

I67A
scaled log2 fold change [1]: 0.473 | scaled log2 fold change [2]: 0.322

I67D
scaled log2 fold change [1]: 1.08 | scaled log2 fold change [2]: 1.13

I67F
scaled log2 fold change [1]: 0.0413 | scaled log2 fold change [2]: -0.46

I67S
scaled log2 fold change [1]: 0.0219 | scaled log2 fold change [2]: 0.253

I72F
scaled log2 fold change [1]: -0.0218 | scaled log2 fold change [2]: -0.0982

I72E
scaled log2 fold change [1]: -0.111 | scaled log2 fold change [2]: -0.295

I72H
scaled log2 fold change [1]: 0.00982 | scaled log2 fold change [2]: -0.581

I72C
scaled log2 fold change [1]: 0.238 | scaled log2 fold change [2]: -0.937

I72A
scaled log2 fold change [1]: 0.0764 | scaled log2 fold change [2]: -0.682

I72D
scaled log2 fold change [1]: 0.34 | scaled log2 fold change [2]: -0.132

I72G
scaled log2 fold change [1]: -0.24 | scaled log2 fold change [2]: -0.556

H70V
scaled log2 fold change [1]: 0.191 | scaled log2 fold change [2]: -1.13

H70G
scaled log2 fold change [1]: 0.373 | scaled log2 fold change [2]: 1.09

H70I
scaled log2 fold change [1]: 0.093 | scaled log2 fold change [2]: -0.0895

H70W
scaled log2 fold change [1]: -0.0809 | scaled log2 fold change [2]: -0.922

H70T
scaled log2 fold change [1]: -0.764

H70D
scaled log2 fold change [1]: 0.33 | scaled log2 fold change [2]: 1.31

H70L
scaled log2 fold change [1]: -0.219 | scaled log2 fold change [2]: -0.612

H70R
scaled log2 fold change [1]: -0.349 | scaled log2 fold change [2]: -0.0802

H70E
scaled log2 fold change [1]: 0.148 | scaled log2 fold change [2]: 0.829

H70A
scaled log2 fold change [1]: 0.42 | scaled log2 fold change [2]: -0.104

H70K
scaled log2 fold change [1]: -0.215 | scaled log2 fold change [2]: 0.573

H70M
scaled log2 fold change [1]: -0.0655 | scaled log2 fold change [2]: 0.0916

H70F
scaled log2 fold change [1]: 0.152 | scaled log2 fold change [2]: 0.385

H70P
scaled log2 fold change [1]: 0.933 | scaled log2 fold change [2]: 0.983

H70Y
scaled log2 fold change [1]: 0.0486

H70N
scaled log2 fold change [1]: 0.0583 | scaled log2 fold change [2]: -0.00885

H70S
scaled log2 fold change [1]: 0.277 | scaled log2 fold change [2]: -0.697

H70Q
scaled log2 fold change [1]: 0.0254 | scaled log2 fold change [2]: -0.0243

H70C
scaled log2 fold change [1]: 0.396

F71V
scaled log2 fold change [1]: 0.271 | scaled log2 fold change [2]: -0.215

F71E
scaled log2 fold change [1]: 1.02 | scaled log2 fold change [2]: 1.5

F71W
scaled log2 fold change [1]: 0.102 | scaled log2 fold change [2]: -0.726

F71I
scaled log2 fold change [1]: -0.753 | scaled log2 fold change [2]: -0.554

F71Y
scaled log2 fold change [1]: 0.112 | scaled log2 fold change [2]: -0.0161

F71R
scaled log2 fold change [1]: 1.04 | scaled log2 fold change [2]: 1.38

F71T
scaled log2 fold change [1]: 0.523 | scaled log2 fold change [2]: 0.991

F71K
scaled log2 fold change [1]: 1.18 | scaled log2 fold change [2]: 1.46

F71S
scaled log2 fold change [1]: 0.983 | scaled log2 fold change [2]: 1.08

F71N
scaled log2 fold change [1]: 1.07 | scaled log2 fold change [2]: 1.17

F71C
scaled log2 fold change [1]: 0.161 | scaled log2 fold change [2]: 0.0168

F71H
scaled log2 fold change [1]: 1.22 | scaled log2 fold change [2]: 1.17

F71G
scaled log2 fold change [1]: 1.09 | scaled log2 fold change [2]: 0.752

F71P
scaled log2 fold change [1]: 1.18 | scaled log2 fold change [2]: 1.13

F71M
scaled log2 fold change [1]: 0.0919 | scaled log2 fold change [2]: 1.2

F71L
scaled log2 fold change [1]: -0.0155 | scaled log2 fold change [2]: -0.376

F71D
scaled log2 fold change [1]: 1.1 | scaled log2 fold change [2]: 1.37

F71Q
scaled log2 fold change [1]: 1.3 | scaled log2 fold change [2]: 0.999

F71A
scaled log2 fold change [1]: 0.63 | scaled log2 fold change [2]: 0.751

K66T
scaled log2 fold change [1]: 0.0453 | scaled log2 fold change [2]: 0.851

K66N
scaled log2 fold change [1]: -0.167 | scaled log2 fold change [2]: 0.199

K66M
scaled log2 fold change [1]: -0.188 | scaled log2 fold change [2]: -0.226

K66S
scaled log2 fold change [1]: -0.679 | scaled log2 fold change [2]: -0.304

K66P
scaled log2 fold change [1]: -0.38 | scaled log2 fold change [2]: -0.254

K66V
scaled log2 fold change [1]: 0.0478 | scaled log2 fold change [2]: -0.102

K66I
scaled log2 fold change [1]: -0.298 | scaled log2 fold change [2]: -0.755

K66R
scaled log2 fold change [1]: 0.114 | scaled log2 fold change [2]: -0.744

K66L
scaled log2 fold change [1]: -0.00608 | scaled log2 fold change [2]: -0.145

K66W
scaled log2 fold change [1]: -0.5 | scaled log2 fold change [2]: -0.676

K66H
scaled log2 fold change [1]: 0.0524 | scaled log2 fold change [2]: -0.795

K66Y
scaled log2 fold change [1]: -0.0452 | scaled log2 fold change [2]: -0.0505

K66G
scaled log2 fold change [1]: 0.301 | scaled log2 fold change [2]: 0.245

K66Q
scaled log2 fold change [1]: -0.382 | scaled log2 fold change [2]: 0.00416

K66F
scaled log2 fold change [1]: -0.158 | scaled log2 fold change [2]: -0.676
